Assay results: patent US20120094914A1 (KYUSHU UNIVERSITY NATIONAL UNIVERSITY, published 2012)

Biological target: T1, biotinylated HLA-G (monomer) refolded with human beta2 microglobulin and peptide … (human, biotinylated with BirA; site not stated)
T1 construct: also called wild-type HLA-G
Assay: SPR (BIAcore 2000), equilibrium response against LIR2 concentration, fitted binding isotherm; biotinylated HLA-G immobilised via streptavidin, BSA control cell subtracted
Protocol: Surface plasmon resonance experiment was conducted for HLA-G and LILRB2 (LIR2), using BIAcore 2000° (BIAcore AB, St Albans, England). First, streptavidin was covalently immobilized on a laboratory sensor chip CM5 (BIAcore AB), and the biotinylated HLA-G and the negative control BSA were immobilized via the streptavidin. Then, LILRB2 (LIR2) dissolved in the running buffer HBS-EP (10 mM HEPES, pH 7.5, 150 mM sodium chloride, 3.4 mM EDTA, 0.005% Surfactant P20) was flown at 10 μL/min. The binding response at each concentration was calculated by subtracting the measured response in a control flow cell from the response in a sample flow cell. Binding constant (Kd) was obtained by Scatchard analysis, or by the nonlinear curve fitting of standard Langmuir binding isotherm, using ORIGIN 5 (Microcal Software).

Kd: 4.1 µM
B1: LILRB2 (LIR2) (receptor, UniProt Q8N423 24-220, looked up)
chain: GTIPKPTLWAEPDSVITQGSPVTLSCQGSLEAQEYRLYREKKSASWITRIRPELVKNGQFHIPSITWEHTGRYGCQYYSRARWSELSDPLVLVMTGAYPKPTLSAQPSPVVTSGGRVTLQCESQVAFGGFILCKEGEDEHPQCLNSQPHARGSSRAIFSVGPVSPNRRWSHRCYGYDLNSPYVWSSPSDLLELLVPG
notes: domain: ILT4D1D2; also called leukocyte Ig-like receptor B2; ILT4
